This is an account of results in paper PMC4402694, “A non-canonical mechanism for Crm1-export cargo complex assembly” (eLife, 2015).

Conditions in all cases: both partners purified
For experiment [1], the target named is T1, His6-Ran^QLGTP (yeast (S. cerevisiae), UniProt P32835 1-219, Gsp1Q71L).
T1 construct: Gsp1 (yeast Ran), GTP-stabilized mutant Q71L, equivalent to human RanQ69L; also called Gsp1Q71L; RanGTP; not shown: His6, N-terminal, kept
Kind of experiment: pull-down; GST fusion immobilised on GSH-Sepharose in PBSKMT, incubated with one purified protein (2 µM His6-Ran variant, or 0.5 µM Slx9 or Slx9-1) for 1 hr at 4°C, competing E. coli lysates present; Coomassie or Western.

Another experiment concerns the target T2, His6-Ran (yeast (S. cerevisiae), UniProt P32835 1-219).
T2 construct: Gsp1 (yeast Ran), wild type; loaded with GTP or with GDP before the assay; the two loadings are two assays; also called His6-Gsp1 (Ran) WT; RanGTP; not shown: His6, N-terminal, kept
In words: pull-down; GST fusion immobilised on GSH-Sepharose, incubated with 2 µM His6-Ran loaded with GTP, 1 hr at 4°C.

Another experiment has as its target Crm1-His6 (yeast (S. cerevisiae), UniProt P30822 1-1084). Kind of experiment: pull-down; trimeric export complex formation: GST fusion immobilised on GSH-Sepharose, incubated with 2 µM His6-Ran^QLGTP and 50 nM Crm1-His6 together; competing E. coli lysates present; Coomassie or Western.
Experiment [2] deals with T1, His6-Ran^QLGTP. The experiment is described as above.

B1: GST-Slx9 (natural protein, yeast (S. cerevisiae), UniProt P53251 1-210, looked up)
chain: MVAKKRNTLRSKVSARNSQNFGPDVANNGILDESYDIESDPRAFLHQPKETKKEKLLNRQNTFLSNLKGKSTLNDGIAANFDGISKSSIRRRKRKLREELKPRMQDLLTSLEQEKDLRGIIENSSKDMNNDDDIDMDSKIRFVDTKEMNLKKIEPGSVRIKKNQPNIRNQKGAKALAANETARFNQVLTNQDFQKNPFGALREVIKLQKQ
With B1, the binding result with His6-Ran^QLGTP [1] and with His6-Ran was “binds” throughout.

B2: GST-Ssb1C (domain or fragment, yeast (S. cerevisiae), UniProt P11484 524-613, looked up)
chain: NQAEEFKAADEAFAKKHEARQRLESYVASIEQTVTDPVLSSKLKRGSKSKIEAALSDALAALQIEDPSADELRKAEVGLKRVVTKAMSSR
Regarding B2, the binding result with Crm1-His6 and in the experiment with His6-Ran^QLGTP [2] was “binds” throughout.
